From patent KR20110049766A (dated 2011)

Experiments:
[1] = molecular target: T1, MBP-IL-15 fusion protein (recombinant human IL-15 fused to maltose-binding protein) (human, UniProt P40933 49-162); assay: competitive inhibition ELISA; Fab-pIII supernatant pre-incubated with soluble antigen, then on coated antigen; Kd from IC50 (Klotz plot)
T1 construct: Expressed in E. coli TG1 and purified on amylose resin; also called recombinant human IL-15 antigen

[2] = molecular target: T2, recombinant human TNF-alpha (human, UniProt P01375 77-233); assay: as above
T2 construct: Bought protein; also called TNF-α; tumor necrosis factor-alpha
T2 sequence (P01375 77-233 limits assumed): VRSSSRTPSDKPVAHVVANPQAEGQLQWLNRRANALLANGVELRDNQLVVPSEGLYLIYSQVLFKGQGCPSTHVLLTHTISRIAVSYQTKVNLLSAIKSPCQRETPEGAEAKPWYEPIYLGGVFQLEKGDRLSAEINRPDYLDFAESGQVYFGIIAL

[3] = molecular target: T1, MBP-IL-15 fusion protein (recombinant …); assay: ELISA (Fig. 3a), Fab-pIII supernatant on coated antigen

T1 sequence (P40933 49-162 limits assumed): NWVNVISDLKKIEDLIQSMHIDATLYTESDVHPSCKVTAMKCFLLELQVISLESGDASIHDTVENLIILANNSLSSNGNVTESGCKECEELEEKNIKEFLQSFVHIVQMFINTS

| Binder | Kd [1] | Kd [2] | binding result [3] |
| --- | --- | --- | --- |
| anti-IL-15 Fab clone 4H10 (Fab, V domains shown, Tested as a soluble Fab-pIII fusion molecule in E. coli culture supernatant (human Fd = VH+CH1 fused to phage pIII, human kappa light chain); Only the variable domains are tied to the clone; also called 3E3; 4H10 (3E3)) VH: EVQLVQSGGGLVEPGGSLRLSCAASGLSISDAWMHWVRQVPGKGLEWVGLITNKTGGGTIIYAAPVKGRFTISRDDSKNTLYLQMNSLKTEDTAMYYCVTTYDQGYWGQGTMVTVSS VL: ELVLTQSPSSLSASVGDRVTITCRASQSISRYLNWYQQKPGKAPKLLIYGASRLESGVPSRFSGSGSGTDFTLTISSLQPEDFATYYCQQSDSVPVTFGQGTRLEIKR | 100 nM |  |  |
| anti-TNF-α Fab clone TNFa#2 (Fab, V domains shown, Tested as a soluble Fab-pIII fusion molecule in E. coli culture supernatant; only the variable domains are tied to the clone; also called TNFα#2; #5) VH: EVQLVQSGGGVVQPGRSLRLSCAASGFSFGDYAMHWVRQAPGKGLEWVSGISWNSRIIGYADSVKGRFTISRDKAKNSLYLQMSSLRTEDTAVYYCARMGGDSSGYYSEPYYYFDYWGQGTLVTVSS VL: ELVLTQSPSSLSASVGDRVTITCRASQSISRYLNWYQQKPGKAPKLLIYGASRLESGVPSRFSGSGSGTDFTLTISSLQPEDFATYYCQQSDSVPVTFGQGTRLEIKR |  | 200 nM |  |
| anti-IL-15 Fab clone 3C1 (Fab, V domains shown, Tested as a soluble Fab-pIII fusion molecule in E. coli culture supernatant; only the variable domains are tied to the clone; also called 4H7; 3C1 (4H7)) VH: EVQLVQSGGGLVEPGGSLRLSCAASGLSISDAWMHWVRQVPGKGLEWVGLITNKTGGGTIIYAAPVKGRFTISRDDSKNTLYLQMNSLKTEDTAMYYCVTTYDQGYWGQGTMVTVSS VL: DIVMTQSPSSLSASVGDRVPITCRASQGIRNDLGWYQQKPGKAPKLLIYAASSLQSGVPSRFSGSGSGTDFTLTISSLQPEDFATYYCLQDYNYPWTFGQGTQVEIKR |  |  | binds |
| anti-IL-15 Fab clone 1H3 (Fab, V domains shown, Tested as a soluble Fab-pIII fusion molecule in E. coli culture supernatant; only the variable domains are tied to the clone) VH: EVQLVQSGGGLVEPGGSLRLSCAASGLSISDAWMHWVRQVPGKGLEWVGLITNKTGGGTIIYAAPVKGRFTISRDDSKNTLYLQMNSLKTEDTAMYYCVTTYDQGYWGQGTMVTVSS VL: ELVLTQSPGTLSLSPGERATLSCRASQSIFNYVAWYQQKPGQAPRLLIYDASNRATGIPARFSGSGSGTDFTLTISSLEPEDFAVYYCQQRSKWPPTWTFGQGTRVDIKR | 700 nM |  |  |
| anti-TNF-α Fab clone TNFa#1 (Fab, V domains shown, Tested as a soluble Fab-pIII fusion molecule in E. coli culture supernatant; only the variable domains are tied to the clone; also called TNFα#1; #4) VH: QVQLLQSGGGLVKPGGSLRLSCVASGFTFSSYWMSWVRQAPGKGLEWIGEINHSGSTSYNPSLKSRVTISIDTSKNQFSLKLNSVATADTAVYYCARLGWTMVRGVKYYYGMDVWGQGTMVTVSS VL: ELVLTQSPSSLSASVGDRVTITCRASQSISRYLNWYQQKPGKAPKLLIYGASRLESGVPSRFSGSGSGTDFTLTISSLQPEDFATYYCQQSDSVPVTFGQGTRLEIKR |  | 1000 nM |  |
| anti-IL-15 Fab clone 8C5 (Fab, V domains shown, Tested as a soluble Fab-pIII fusion molecule in E. coli culture supernatant; only the variable domains are tied to the clone) VH: QVQLLQSGPGLVKPSQTLSLTCAISGDSVSSNSAAWNWIRQSPSRGLEWLGRTYYRSKWYNDYAVSVKSRITINPDTSKNQFSLQLNSVTPEDTAVYYCASHKDPGSSWYRQPFDYWGQGTMVTVS VL: ELVLTQSPSSLSASVGDRVTITCRASQSISRYLNWYQQKPGKAPKLLIYGASRLESGVPSRFSGSGSGTDFTLTISSLQPEDFATYYCQQSDSVPVTFGQGTRLEIKR |  |  | binds |
